In the supplement of paper PMC10126150 one finds switch fluorescence ratio data, which are given here for 78 sequences.

± gives the standard deviation of the averaged measurements.

This data set has as its system ATP. Description: switch fluorescence ratio, 500 uM ATP over buffer (Cy3 cluster intensity, sum of 5 cycles each) (fold (ratio)); higher = stronger signal-on switching upon ATP binding; sequences stand for … in TCGTCGGCAGCGTCAGATGTGTATAAGAGACAGTTTTTTTTTTTTTTTTTTTTTTTTT…TC. The conditions noted are these: aptamer strand: ATP DNA aptamer (quencher-CACCTGGGGGAGTATTGCGGAGGAAGG + anchor), 100 nM annealed; ATP concentration: 500 uM. The procedure, abridged: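 Cy3-labelled switching-strand clusters on a modified Illumina MiSeq flow-cell were annealed to 100 nM quencher-labelled ATP aptamer and imaged first in selection buffer, then after 15 min with 500 uM ATP at 22 °C. NaOH stripping and re-annealing separated each of five buffer/ATP cycles, and clusters outside 100-1000 RFU were excluded. The fluorescence ratio sums target-cycle Cy3 intensity over buffer-cycle Cy3 intensity per cluster and averages it per switch-domain sequence.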
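Also: ATP exposure 15 min at 22 °C before imaging.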

For the sequence TTGGCATTTG, the switch fluorescence ratio was 1.02 ± 0.064.

For TTGGCCACCG, the switch fluorescence ratio is 1.08 ± 0.096.

For TTGGCCCGGG, the switch fluorescence ratio came out at 1.01 ± 0.059.

Turning to TTGGCCTTTT, the switch fluorescence ratio is 1.09 ± 0.12.

Take TTGGCGAGGA: the switch fluorescence ratio came to 1.003 ± 0.0024.

On to TTGGCGCTTG, for which the switch fluorescence ratio stood at 1.02 ± 0.025.

TTGGCTCTGG: the switch fluorescence ratio stood at 0.987 ± 0.02.

As for TTGGCTCTTT, the switch fluorescence ratio turned out to be 1.01 ± 0.02.

For the sequence TTGGCTTAG, the switch fluorescence ratio was 0.999 ± 0.014.

On to TTGGCTTGGG, for which the switch fluorescence ratio stood at 1.01 ± 0.043.

Consider TTGGCTTTTT, for which the switch fluorescence ratio stood at 1.01 ± 0.015.

Regarding TTGGGAAATT, the switch fluorescence ratio was 1.02 ± 0.04.

With TTGGGAACAT, the switch fluorescence ratio is 1 ± 0.016.

Take TTGGGAAGGC: the switch fluorescence ratio is 0.972 ± 0.035.

Regarding TTGGGAATAA, the switch fluorescence ratio is 1.02 ± 0.0046.

For the sequence TTGGGAATTT, the switch fluorescence ratio worked out at 0.975 ± 0.019.

As to TTGGGAGAAA, the switch fluorescence ratio amounted to 0.9804 ± 0.0092.

Regarding TTGGGAGTTA, the switch fluorescence ratio was 0.99379 ± 0.00026.

Turning to TTGGGATGAG, the switch fluorescence ratio turned out to be 1 ± 0.019.

As for TTGGGATGTT, the switch fluorescence ratio came to 0.9904 ± 0.009.

For the sequence TTGGGATTGG, the switch fluorescence ratio turned out to be 0.968 ± 0.018.

As for TTGGGCAACT, the switch fluorescence ratio was 1.06 ± 0.07.

In the case of TTGGGCACTG, the switch fluorescence ratio came to 0.974 ± 0.013.

Consider TTGGGCACTT, for which the switch fluorescence ratio came to 0.997 ± 0.068.

In the case of TTGGGCATGG, the switch fluorescence ratio turned out to be 1.02 ± 0.048.

For the sequence TTGGGCATTG, the switch fluorescence ratio was 1.01 ± 0.017.

Take TTGGGCCCGC: the switch fluorescence ratio worked out at 1.007 ± 0.0012.

With TTGGGCCGTT, the switch fluorescence ratio came to 1.01 ± 0.035.

For the sequence TTGGGCCTCT, the switch fluorescence ratio is 1.01 ± 0.029.

On to TTGGGCGACG, for which the switch fluorescence ratio stood at 1.036 ± 0.0032.

For the sequence TTGGGCGCGG, the switch fluorescence ratio was found to be 1 ± 0.031.

Take TTGGGCTGGG: the switch fluorescence ratio is 1.01 ± 0.026.

As to TTGGGCTTTC, the switch fluorescence ratio is 1.04 ± 0.03.

Turning to TTGGGGAACA, the switch fluorescence ratio was found to be 1.014 ± 0.008.

Consider TTGGGGAACG, for which the switch fluorescence ratio is 1.41 ± 0.62.

Take TTGGGGAAGA: the switch fluorescence ratio was found to be 1.02 ± 0.029.

As to TTGGGGATGC, the switch fluorescence ratio stood at 1.33 ± 0.23.

For the sequence TTGGGGCCCA, the switch fluorescence ratio is 1 ± 0.022.

For TTGGGGCCGG, the switch fluorescence ratio amounted to 1.003 ± 0.0095.

For TTGGGGGATG, the switch fluorescence ratio amounted to 0.985 ± 0.0088.

Turning to TTGGGGGCAA, the switch fluorescence ratio was found to be 1.57 ± 0.84.

Turning to TTGGGGGGAG, the switch fluorescence ratio was determined as 0.99 ± 0.027.

As to TTGGGGGGTG, the switch fluorescence ratio was determined as 1.04 ± 0.14.

Turning to TTGGGGTAAT, the switch fluorescence ratio came to 1.01 ± 0.022.

Turning to TTGGGGTACA, the switch fluorescence ratio was 0.9895 ± 0.0051.

For the sequence TTGGGGTAGC, the switch fluorescence ratio is 1.01 ± 0.036.

For TTGGGGTATT, the switch fluorescence ratio came out at 1.01 ± 0.025.

In the case of TTGGGGTGAG, the switch fluorescence ratio came out at 0.981 ± 0.022.

For TTGGGGTGCA, the switch fluorescence ratio was 0.99 ± 0.018.

With TTGGGGTTAA, the switch fluorescence ratio is 1.03 ± 0.058.

Take TTGGGGTTCA: the switch fluorescence ratio was 0.9752 ± 0.0084.

For the sequence TTGGGGTTTG, the switch fluorescence ratio is 0.975 ± 0.038.

Consider TTGGGTAATA, for which the switch fluorescence ratio turned out to be 1.05 ± 0.087.

Take TTGGGTATGA: the switch fluorescence ratio worked out at 1.01 ± 0.037.

Consider TTGGGTCCAA, for which the switch fluorescence ratio was 0.983 ± 0.017.

TTGGGTGATC: the switch fluorescence ratio was 1.01 ± 0.049.

On to TTGGGTGCTA, for which the switch fluorescence ratio worked out at 1.09 ± 0.16.

Take TTGGGTGCTG: the switch fluorescence ratio was determined as 1.01 ± 0.032.

For TTGGGTGGGA, the switch fluorescence ratio is 0.986 ± 0.044.

In the case of TTGGGTGGGG, the switch fluorescence ratio was 1 ± 0.049.

Turning to TTGGGTGTCT, the switch fluorescence ratio is 0.988 ± 0.057.

Regarding TTGGGTGTGC, the switch fluorescence ratio was determined as 1.02 ± 0.061.

Take TTGGGTTCGG: the switch fluorescence ratio stood at 0.987 ± 0.038.

On to TTGGGTTCGT, for which the switch fluorescence ratio amounted to 0.998 ± 0.037.

Take TTGGGTTCTT: the switch fluorescence ratio was determined as 0.9937 ± 0.0066.

For TTGGGTTGTG, the switch fluorescence ratio worked out at 1.01 ± 0.041.

With TTGGTAAAGT, the switch fluorescence ratio came out at 1.03 ± 0.071.

In the case of TTGGTAGAAT, the switch fluorescence ratio worked out at 1.01 ± 0.014.

In the case of TTGGTATACG, the switch fluorescence ratio is 0.997 ± 0.026.

Take TTGGTATAGC: the switch fluorescence ratio is 1.003 ± 0.01.

Regarding TTGGTATTAT, the switch fluorescence ratio stood at 0.986 ± 0.02.

For TTGGTCAATC, the switch fluorescence ratio is 1.04 ± 0.024.

In the case of TTGGTGCCGT, the switch fluorescence ratio came out at 1.13 ± 0.046.

As to TTGGTGCTTG, the switch fluorescence ratio came out at 1 ± 0.041.

As to TTGGTGGCTT, the switch fluorescence ratio was 0.968 ± 0.03.

Regarding TTGGTGGGGA, the switch fluorescence ratio came to 0.987 ± 0.042.

As for TTGGTGGGGC, the switch fluorescence ratio is 0.98 ± 0.02.

As to TTGGTGTGTT, the switch fluorescence ratio was 1.01 ± 0.013.
